In the supplement of paper PMC10567573:

B1: STX5 (parent)
chain: ESTIVELGSIFQQLAHMVKEQEET
B2: FAM116A (parent)
chain: TVHEVDIFRCFCPVFLHSQMLWEL

Variants of: B1
Assay: protein stability index of a GFP-peptide fusion (GPS, HEK-293T) (PSI 1-6); higher = more stable
Conditions: c terminus: a fixed tail appended
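Further: lentivirally expressed fusions sorted by FACS into six bins by GFP to DsRed ratio, PSI derived from sequencing read proportions per bin multiplied by bin number.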

Protein stability index, by site and new letter:
E6: P 2.75, Q 2.33, R 4.41, T 1.91, V 1.62, Y 1.81
L7: C 3.74, D 5.12, E 5.22, F 3.03, G 5.65, H 4.9, I 2.16, K 5.07, M 2.48, N 4.96, P 4.75, Q 4.89, R 5.13, S 5.42, T 4.5, V 4.25, W 2.99, Y 3.97
G8: A 2.47, C 2.33, D 2.28, E 3.02, F 2.06, H 2.48, I 2.24, K 1.94, L 1.85, M 1.35, N 2.44, P 3.99, Q 1.68, R 1.84, S 2.79, T 2.69, Y 3.89
S9: A 1.65, C 1.63, D 2.55, E 2.08, G 3.22, H 2.64, I 1.32, K 2.34, L 1.71, M 1.87, N 2.26, Q 2.1, R 2.41, T 2.11, V 1.8, Y 1.46
I10: A 4.32, C 3.72, D 5.88, E 5.46, F 2.26, H 4.5, K 3.69, L 2.63, M 2.6, N 5.07, P 5.58, Q 4.27, R 3.9, S 4.89, T 4.49, V 3.1, W 2.58, Y 3.49
F11: A 3.83, C 3.62, D 5.77, G 5.35, H 5.76, I 2.27, K 4.85, L 2.8, M 2.98, N 5.61, P 4.65, Q 3.48, R 4.92, S 4.27, T 4.81, V 3.19, W 2.83, Y 3.19
Q12: A 1.98, C 1.7, D 3.34, F 2.26, H 3.15, I 2.26, K 1.79, L 3.46, M 1.98, N 2.99, P 4.39, R 2.4, S 2.1, T 1.93, V 2.07, W 1.32, Y 2.17
Q13: A 2.4, C 2.32, E 2.57, F 1.57, G 4.12, H 2.43, I 1.44, K 2.8, L 1.54, M 1.98, N 2.23, P 4.54, S 2.95, T 3.28, V 2.16, W 1.88, Y 2.37
L14: A 4.31, C 4.42, D 5.05, E 5.33, F 1.69, G 4.64, H 4.11, I 2.09, K 5.2, M 3.77, N 5.24, P 4.93, Q 4.75, R 5.32, S 5.26, T 4.78, V 2.81, W 3.17, Y 1.81
A15: C 2.21, D 4.28, E 4.21, F 2.09, G 3.91, H 3.15, I 1.53, K 3.1, L 1.76, M 1.74, N 3.67, P 4.91, Q 2.81, R 2.67, S 2.99, T 3.66, V 2.24, W 2.18, Y 1.74
H16: A 2.13, D 1.78, E 1.96, F 2.02, G 2.13, I 1.88, K 2.27, L 2.75, M 3, N 1.97, P 4.65, Q 1.33, R 1.79, S 2.36, T 3.09, V 2.43, Y 1.67
M17: A 2.83, C 3.6, D 4.11, E 3.41, F 2.46, G 3.86, H 3.7, I 2.3, K 2.06, L 1.7, N 4.16, P 4.59, Q 2.26, R 3, S 3.4, T 4.18, W 2.06, Y 3.29
V18: A 3.27, C 2.44, D 5.09, E 4.64, F 1.81, G 4.6, H 3.73, I 2.41, K 4.16, L 1.8, M 2.79, N 4.38, P 4.45, Q 2.37, R 3.65, S 4.14, T 3.45, W 2.22, Y 2.44
K19: A 1.81, C 1.41, D 4.35, E 2.92, F 2.31, G 2.76, H 2.44, I 1.59, M 1.9, N 2.95, P 4.08, Q 2.32, R 1.85, S 1.97, T 2.41, Y 1.17
E20: A 2.19, C 2.54, D 2.78, F 1.98, G 2.02, H 1.62, K 2.86, M 4.03, N 1.53, P 1.61, Q 1.12, R 1.76, S 2.08, T 1.18, W 1.86, Y 3.75
Q21: A 1.67, C 1.91, D 2.4, E 3.05, F 1.98, G 2.75, H 1.97, I 1.64, K 2.6, L 2.67, M 1.87, N 2.12, P 3.29, R 1.36, S 1.81, T 2.88, V 1.73, W 3.33, Y 2.23
E22: A 2.75, C 2.4, D 1.97, F 2.88, G 1.06, H 1.3, I 2.7, K 2, L 5.42, M 2.89, N 1.98, P 1.69, Q 2.65, S 2.44, T 1.39, W 1.53, Y 1.39
E23: A 1.88, C 1.83, D 2.19, G 1.28, H 2.11, I 2.38, K 1.48, L 1.42, N 1.47, P 2.06, Q 2.5, R 1.77, S 1.23, T 1.32, V 3.06, Y 1.2
T24: A 2.17, C 1.62, D 1.89, E 2.12, F 1.6, G 1.97, H 2.42, I 1.78, K 1.83, L 1.5, N 2.88, P 2.77, Q 1.59, R 2.12, S 2, V 2.01, W 2.89, Y 2.29

Variants of: B2
Assay: as above
Conditions: c terminus: a fixed tail appended

Protein stability index, by site and new letter:
T1: D 4.17, G 1.75, H 3.11, I 1.4, K 2.66, L 1.68, M 1.98, P 1.67, Q 3.46, R 3.09, Y 2.93
V2: A 1.77, C 2.57
